Here are results for eight molecules from patent publication US20230088277A1 (SHANGHAI SYNVIDA BIOTECHNOLOGY, published 2023).

The target in assay [1] is T1, 6×His tag human Pear1 extracellular segment (Leu-21-Ser; 754) (human, UniProt Q5VY43 21-754).
T1 construct: range 21-754; The ELISA and the Biacore test only say 'human Pear1 ECD protein' / 'extracellular segment'; also called human Pear1 ECD protein; human Pear1ECD protein; not shown: 6×His tag
T1 sequence (looked up): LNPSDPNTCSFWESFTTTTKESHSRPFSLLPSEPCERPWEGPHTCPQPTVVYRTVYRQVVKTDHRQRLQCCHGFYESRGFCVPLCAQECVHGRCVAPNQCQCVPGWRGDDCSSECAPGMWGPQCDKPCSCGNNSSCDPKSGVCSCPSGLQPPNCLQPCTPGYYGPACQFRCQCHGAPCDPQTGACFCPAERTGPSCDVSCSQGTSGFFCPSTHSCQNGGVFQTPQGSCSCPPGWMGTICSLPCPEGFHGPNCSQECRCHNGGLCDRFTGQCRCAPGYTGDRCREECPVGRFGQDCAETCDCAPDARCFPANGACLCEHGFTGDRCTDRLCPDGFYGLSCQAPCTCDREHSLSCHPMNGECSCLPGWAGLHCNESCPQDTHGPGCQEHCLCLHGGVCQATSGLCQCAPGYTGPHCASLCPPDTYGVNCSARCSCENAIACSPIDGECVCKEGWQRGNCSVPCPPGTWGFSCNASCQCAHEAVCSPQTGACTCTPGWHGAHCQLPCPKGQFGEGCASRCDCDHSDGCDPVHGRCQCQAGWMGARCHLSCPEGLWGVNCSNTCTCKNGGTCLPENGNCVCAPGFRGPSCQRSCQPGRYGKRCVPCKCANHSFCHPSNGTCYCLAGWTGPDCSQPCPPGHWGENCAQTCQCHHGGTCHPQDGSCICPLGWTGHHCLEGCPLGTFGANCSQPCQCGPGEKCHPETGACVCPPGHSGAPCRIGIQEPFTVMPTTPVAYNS
Put plainly: ELISA, plate coated with human Pear1 ECD. Here is the method:
FIG. 6 The comparison of the affinities of the anti-human Pear1 antibodies to human Pear1. The ELISA plate was coated with human Pear1 ECD proteins and the reactions were conducted between antibodies at different concentrations (2000 ng/mL, 1000 ng/mL, 500 ng/mL, 250 ng/mL, 125 ng/mL, 62.5 ng/mL, 31.25 ng/mL, 15.625 ng/mL, 7.8125 ng/mL, 3.90625 ng/mL, 1.953125 ng/mL, 0.9765625 ng/mL) and the human Pear1 ECD proteins. OD value was measured to obtain the EC 50 value of the antigen-antibody combination
8.2.1 Comparison of antigen binding ability of these antibodies.
For orientation: In an ELISA, binding on a coated surface is turned into a signal by an enzyme label.

The target in assay [2] is T1, 6×His tag human Pear1 extracellular …. Put plainly: SPR (Biacore); antibody as ligand, Pear1 extracellular segment. On the technique in general: In SPR one partner is held on a chip, and binding of the other changes the refractive index at the surface.

B1: LF15 (antibody, V domains shown)
VH: EVQLQQSGPELVKPGASMKISCKASGYSFTGYTMNWVKQSHGENLEWIGVINPYNGGTSYNQKFKGKATLTVDKSFSTAYMEILSLTSEDSAVYYCSRGGGNSWFAYWGQGTLVTVSA
VL: DIQMTQTSSYLSVSLGGRVTITCKASDHINNWLAWYQQKPGNAPRLLISGATSLETGVPSRFSGSGSGTDYSLTITSLQTEDVATYYCQQYWSIPTFGGGTRLEIK
notes: Mouse monoclonal antibody from hybridoma
As for B1, the EC50 (usually the midpoint of the concentration-response curve) in assay [1] was 0.0807 µg/mL.

B2: LF2 (antibody, V domains shown)
VH: EVQLQQSGPELVKPGASMKISCKASGYSFTGYPMNWVRQSHVKNLEWIGVINPYNGGTSYNQKFKGKATLTVDKSSSTAYIELLSLTSDDSAVYYCARGGVRPFAYWGQGTLVTVSA
VL: DIQMTQTSSSFSVSLGDRVTITCKASEDIYNRLAWYQQKPGNAPRLLISGATSLETGVPSRFSGSGSGNDYTLSITSLQTEDVATYYCQQYWSTPTFGAGTKLELQ
notes: as for B1
Regarding B2, in assay [1], the EC50 was found to be 0.0111 µg/mL.

B3: LF11 (antibody, V domains shown)
VH: EVQLQQSGPELVKPGASMKISCKASGYSFTGYPMNWVKQTHGKNLEWIGLINPYNGGTSYNQKFKGKATLTVDKSSSTAYMELLSLTSDESAVYYCARGGVRPFDFWGQGTLVTVSA
VL: DIVITQSPAIMSASPGEKVTMTCSARSSVSYMYWYQQKPGSSPRLLIYDTSKLASGVPVRFSGSGSGTSYSLTISRMEAEDAATYFCQQWSSYPPTFGGGTKLEIK
notes: as for B1
On to B3, for which the EC50 in assay [1] was found to be 0.00891 µg/mL.

B4: LF7 (antibody, V domains shown)
VH: EVQLQQSGPELVKPGASMKISCKASGYSFTGYPMNWVRQSHGKNLEWIGVINSYNGGASYNQKFKGKATLTVDKSSNIVHMELLSLTSEDSAVYYCARGGVRPFAYWGQGTLVTVSA
VL: DIVMTQSQKFMSTSVGDRVSVTCKASQNVDTNVAWYQQKPGQSPKALIYSASYRYSGVPDRFTGSGSGTDFTLTISNVQSEDLAEYFCQQYDSYPYTFGGGTKLEIR
notes: as for B1
On to B4, for which the EC50 in assay [1] was 0.0336 µg/mL.

B5: LF2-hIgG4 (antibody, V domains shown)
VH: EVQLQQSGPELVKPGASMKISCKASGYSFTGYPMNWVRQSHVKNLEWIGVINPYNGGTSYNQKFKGKATLTVDKSSSTAYIELLSLTSDDSAVYYCARGGVRPFAYWGQGTLVTVSA
VL: DIQMTQTSSSFSVSLGDRVTITCKASEDIYNRLAWYQQKPGNAPRLLISGATSLETGVPSRFSGSGSGNDYTLSITSLQTEDVATYYCQQYWSTPTFGAGTKLELQ
notes: read from the name as the variable domains of LF2 on human IgG4 constant regions; also called LF2-hlgG 4
Turning to B5, in assay [2], the Kd (usually the constant that tells how readily two partners part at equilibrium) turned out to be 3.52 nM; the koff – broadly, a measure of how fast the partners let go of each other – is 0.000187 s⁻¹; the kon (in general, a measure of how fast the partners come together) is 53100 M⁻¹ s⁻¹; the t1/2 was determined as 61.8 min.

B6: LF16 (antibody, V domains shown)
VH: EVQLQQSGPELVKPGASMKISCKASGYAFTGYTMNWVKQSHGKNLDWIGVINGYNGGTSYNQKFKGKATLTVDKSSSTAYMELLSLTSEDSAIYYCARGGPTTGFVYWGQGTLVTVSA
VL: DIQMTQTSSSFSVSLGDRVTITCKASEDIYNRLAWYQQKPGNAPRLLISGATSLETGVPSRFSGSGSGKDYTLSITSLQTEDVATYYCQQYWSTPTFGAGTKLELK
notes: as for B1
B6: the EC50 in assay [1] worked out at 0.0547 µg/mL.

B7: LF3 (antibody, V domains shown)
VH: EVQLQQSGPELVKPGASMKISCKASGYSFTGYPMNWVKQTHGKNLEWIGLINPYNGGTSYNQKFKGKATLTVDKSSSTAYMELLSLTSDESAVYYCARGGVRPFDFWGQGTLVTVSA
VL: DIQMTQTSSSFSVSLGDRVTITCKASEDIYNRLAWYQQKPGNAPRLLISGATSLETGVPSRFSGSGSGNDYTLSITSLQTEDVATYYCQQYWSTPTFGAGTKLELQ
notes: as for B1
In the case of B7, in assay [1], the EC50 worked out at 0.00927 µg/mL.

B8: hLF116 (antibody, V domains shown)
VH: QVQLVQSGAEVKKPGASVKVSCKASGYTFTGYPMNWVRQAPGKNLEWMGVINPYNGGTSYNQKFKGRATLTVDKSASTAYMELSSLRSEDTAVYYCARGGVRPFAYWGQGTLVTVSS
VL: DIQMTQSPSSLSASVGDRVTITCKASEDIYNRLAWYQQKPGNAPKLLISGATSLETGVPSRFSGSGSGNDYTLTISSLQPEDFATYYCQQYWSTPTFGQGTKLEIK
notes: Humanized antibody
In the case of B8, in assay [2], the Kd is 5.09 nM, the off-rate (koff) is 0.000221 s⁻¹, the kon is 43400 M⁻¹ s⁻¹ and the t1/2 was 52.3 min.
